T1: SID2p peptide (APOL1 G332-L392, WT) (human)
T1 peptide: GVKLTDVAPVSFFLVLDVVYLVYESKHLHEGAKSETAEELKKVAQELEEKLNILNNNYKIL


How the values were obtained:
[1] = target: T1, SID2p peptide (APOL1 G332-L392, WT); test: SPR
[2] = target: recombinant NCS-1 (not myristoylated) (UniProt P62166 1-190, biotin (EZ-Link NHS-PEG4-biotin) where bound to the streptavidin sensor); test: BLI
recombinant NCS-1 (not myristoylated), sequence (P62166 whole entry): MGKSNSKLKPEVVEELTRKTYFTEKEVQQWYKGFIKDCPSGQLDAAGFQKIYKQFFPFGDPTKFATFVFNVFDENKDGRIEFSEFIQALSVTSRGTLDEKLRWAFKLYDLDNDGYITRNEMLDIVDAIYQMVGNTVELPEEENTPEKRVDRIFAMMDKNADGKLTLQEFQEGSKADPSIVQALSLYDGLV

binding result [1] | Kd [2] [nM] | Binder
binds | – | LTDNEAWNGFVAAAELPRNEADELRKALDNLARQMIMK [LZ1p peptide (APOL1 L88-K125)]
– | 36.5 ± 2.6 | recombinant APOL3 (natural protein, biotin (EZ-Link NHS-PEG4-biotin), only where APOL3 was the bound partner (Figure 5A)) MDSEKKRFTEEATKYFRERVSPVHLQILLTNNEAWKRFVTAAELPRDEADALYEALKKLRTYAAIEDEYVQQKDEQFREWFLKEFPQVKRKIQESIEKLRALANGIEEVHRGCTISNVVSSSTGAASGIMSLAGLVLAPFTAGTSLALTAAGVGLGAASAVTGITTSIVEHSYTSSAEAEASRLTATSIDRLKVFKEVMRDITPNLLSLLNNYYEATQTIGSEIRAIRQARARARLPVTTWRISAGSGGQAERTIAGTTRAVSRGARILSATTSGIFLALDVVNLVYESKHLHEGAKSASAEELRRQAQELEENLMELTQIYQRLNPCHTH
